The text below walks through data of patent US20230383257A1, “PRODUCTION OF MEGAKARYOCYTES AND PLATELETS IN A CO-CULTURE SYSTEM” (BOARD OF REGENTS, THE UNIVERSITY OF TEXAS SYSTEM, priority 2020, published 2023).

The subject of one assay is CB platelets. In words: TRAP-induced platelet activation (CD62P expression). Format: cell-based, human. Conditions: after TRAP stimulation, vs without inhibitor. An excerpt: (§1) FIGS. 4A-4E. Rock inhibitor treatment enhance platelets secretion and TRAP induced activation. (FIG. 4A) Schematic representation of the strategy for the in-vitro megakaryocytes culture with or without rock inhibitor(Y27632) for 48 hrs. (FIG. 4B) Number of platelets after 48 hrs, number above bar indicates p-value. […] This indicates enhancement of functional profile of the CB platelets (FIGS. 4D-4E). Several different ROCK inhibitors can be used in this procedure including Y27632, KD025, GSK269962 and Azaindole 1([9-12].

The subject of assay [1] is CB megakaryocytes. As to the kind of experiment: Megakaryocyte polyploidy by propidium iodide staining after ROCK inhibitor treatment. Format: cell-based, human. Conditions: treatment of mature megakaryocytes over 5 days, vs untreated. An excerpt: FIGS. 3A-3C. Rock inhibitor(Y27632) treatment increases megakaryocyte polyploidy. (FIG. 3A) Schematic representation of the strategy for the rock inhibitor treatment of mature megakaryocytes over 5 days. (FIG. 3B) Histogram plots showing propidium Iodide (PI) staining in fixed and permeabilized untreated or Y27632 treated megakaryocytes. (FIG. 3C) Percentage of polyploid (=>8N) megakaryocytes in untreated or Y27632 treated groups, number above bar indicates p-value.
The inventors characterized the influence of ROCK inhibitors on CB megakaryocyte ploidy changes, platelets secretions, and their functionality.
This indicates enhancement of functional profile of the CB platelets (FIGS. 4D-4E). Several different ROCK inhibitors can be used in this procedure including Y27632, KD025, GSK269962 and Azaindole 1([9-12].

In assay [2] the test system is CB megakaryocytes. As to the kind of experiment: Platelet secretion from megakaryocytes cultured in vitro with or without ROCK inhibitor. Format: cell-based, human. Conditions: 48 hrs culture, vs without inhibitor; dose-dependent.
Excerpt: as §1

The test system of a further assay is recipient patients. Conditions: ex vivo treatment of CB CD34+ progenitors with FT-VI plus GDP-fucose; cited from earlier work.
For assay [3], the system named is megakaryocytes (CD41a+CD42b+ cells). In words: Cell surface fucosylation by flow cytometry HECA-452 antibody staining. Format: cell-based, human. Conditions: FT-VI 0.025 μg/ml plus GDP-fucose, 37° C., 30 min, vs control. An excerpt:
(§2) FIGS. 7A-7G. FIG. 7A. […] (FIG. 7C) HECA-452 antibody mean fluorescence intensity (MFI) histogram expression in control and fucosylated megakaryocytes (CD41a+CD42b+CD61+ cells). (FIGS. 7D-7E) Schematic representation of CB megakaryocytes injection into NSG mice, BM homing analysis and the percentage of homed megakaryocytes in control and fucosylated megakaryocytes group. (FIGS. 7F-7G) CB megakaryocyte injection strategy into sublethally irradiated(3Gy) NSG mice and day 7 blood circulating CB derived platelets percentages measurement in the control and fucosylated groups.
(§3) To characterize the fucosylation levels at steady state, the inventors performed flow cytometry HECA-452 antibody staining (which recognizes sLex/cutaneous lymphocyte antigen (CLA), the fucosylated selectin ligand) to measure the levels of cell surface fucosylation in the freshly isolated CB derived hematopoietic stem cells(HSCs, lineage-CD34+CD38-CD90+CD45RA− cells), megakaryocytes lineage committed, megakaryocyte erythroid progenitors (MEPs, lineage-CD34+CD38+CD135−CD45RA−), and differentiated megakaryocytes(CD41a+CD42b+ cells). […] The NSG bone marrow homing experiments determine if the CB MK's surface fucosylation modification influences their homing into the irradiated mice marrow niche. Briefly, 5×10^6 fluorescein succinimidyl ester (CFSE) dye labeled, unmanipulated control or in-vitro fucosyltransferase-VI (FT-VI) induced fucosylated, expanded CB megakaryocytes were injected into sub-lethally (3Gy) irradiated NSG mice and bone marrow homing analysis at 20 h posttransplant was performed by flow cytometry. […] Similarly, another megakaryocytes tail vein transplantation (5×10^6/mice) experiment was performed, and initial percentage circulating platelets levels were measured from the control and fucosylated MK recipient groups. […]
(In general: A flow cytometer gives signals particle by particle.)

Assay [4] concerns CB derived hematopoietic stem cells (HSCs). The assay is described as above. Format: cell-based, human. Conditions: FT-VI 0.025 μg/ml plus GDP-fucose, 37° C., 30 min, vs control.
Excerpt: as §2, §3

Assay [5] has as its system megakaryocyte erythroid progenitors (MEPs). Described as above. Format: cell-based, human. Conditions: FT-VI 0.025 μg/ml plus GDP-fucose, 37° C., 30 min, vs control.
Excerpt: as §2, §3

`C[C@@H](N)[C@H]1CC[C@H](C(=O)Nc2ccncc2)CC1` [Y27632]: the “TRAP induced platelet activation (CD62P expression)” value in the assay on CB platelets was “enhance”. In addition, the “megakaryocyte polyploidy (polyploid =>8N megakaryocytes)” value in the assay with CB megakaryocytes [1] was “increases”. Further, the “platelets secretion (number of platelets)” value with CB megakaryocytes [2] is given as “enhance”.

B1: α1,3-fucosyltransferase (protein, UniProt P51993 1-359, looked up)
4-galactosyl-N-acetylglucosami …: MDPLGPAKPQWSWRCCLTTLLFQLLMAVCFFSYLRVSQDDPTVYPNGSRFPDSTGTPAHSIPLILLWTWPFNKPIALPRCSEMVPGTADCNITADRKVYPQADAVIVHHREVMYNPSAQLPRSPRRQGQRWIWFSMESPSHCWQLKAMDGYFNLTMSYRSDSDIFTPYGWLEPWSGQPAHPPLNLSAKTELVAWAVSNWGPNSARVRYYQSLQAHLKVDVYGRSHKPLPQGTMMETLSRYKFYLAFENSLHPDYITEKLWRNALEAWAVPVVLGPSRSNYERFLPPDAFIHVDDFQSPKDLARYLQELDKDHARYLSYFRWRETLRPRSFSWALAFCKACWKLQEESRYQTRGIAAWFT
notes: fucosyl-transferase enzyme used with GDP-fucose for ex vivo fucosylation of cells
As for B1, in the assay on recipient patients, the “neutropenia and thrombocytopenia duration in recipient patients” value is given as “significantly reduce”. Besides, the “fucosylation levels (HECA-452 MFI) in megakaryocytes” value in assay [3] is “significantly increased”. For the same molecule, in assay [4], the “fucosylation levels (HECA-452 MFI) in HSCs” value was “significantly increased”. For the same molecule, in assay [5], the “fucosylation levels (HECA-452 MFI) in MEPs” value is reported as “significantly increased”.
